Measurements reported in IntAct's records for PubMed 20679240.

B1: Circadian clock oscillator protein KaiC (Synechococcus elongatus (strain PCC 7942)), Q79PF4 (parent)
chain: MTSAEMTSPNNNSEHQAIAKMRTMIEGFDDISHGGLPIGRSTLVSGTSGTGKTLFSIQFLYNGIIEFDEPGVFVTFEETPQDIIKNARSFGWDLAKLVDEGKLFILDASPDPEGQEVVGGFDLSALIERINYAIQKYRARRVSIDSVTSVFQQYDASSVVRRELFRLVARLKQIGATTVMTTERIEEYGPIARYGVEEFVSDNVVILRNVLEGERRRRTLEILKLRGTSHMKGEYPFTITDHGINIFPLGAMRLTQRSSNVRVSSGVVRLDEMCGGGFFKDSIILATGATGTGKTLLVSRFVENACANKERAILFAYEESRAQLLRNAYSWGMDFEEMERQNLLKIVCAYPESAGLEDHLQIIKSEINDFKPARIAIDSLSALARGVSNNAFRQFVIGVTGYAKQEEITGLFTNTSDQFMGAHSITDSHISTITDTIILLQYVEIRGEMSRAINVFKMRGSWHDKAIREFMISDKGPDIKDSFRNFERIISGSPTRITVDEKSELSRIVRGVQEKGPES
partner: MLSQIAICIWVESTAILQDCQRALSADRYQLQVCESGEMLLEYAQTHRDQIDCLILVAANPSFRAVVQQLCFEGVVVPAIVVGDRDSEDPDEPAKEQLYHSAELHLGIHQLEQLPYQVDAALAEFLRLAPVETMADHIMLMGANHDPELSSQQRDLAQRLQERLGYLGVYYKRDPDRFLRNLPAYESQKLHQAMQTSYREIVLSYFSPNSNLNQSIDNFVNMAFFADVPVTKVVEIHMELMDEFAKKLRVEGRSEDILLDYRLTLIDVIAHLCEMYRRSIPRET
B2: Circadian clock oscillator protein KaiC (Synechococcus elongatus (strain PCC 7942)), Q79PF4 (parent)
chain: B1 chain
partner: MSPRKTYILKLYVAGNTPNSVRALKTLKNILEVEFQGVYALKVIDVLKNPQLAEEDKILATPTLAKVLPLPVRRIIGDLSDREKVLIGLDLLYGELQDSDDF

Variants of: B1
Conditions: with kaia_syne7 kaiA

| effect of a mutation on the interaction | Variant |
| --- | --- |
| decreasing interaction strength | S431A;T432A |
| increasing interaction strength | S431E;T432E |

Variants of: B2
Conditions: with kaib_syne7 kaiB

| effect of a mutation on the interaction | Variant |
| --- | --- |
| disrupting interaction strength | S431A;T432A |
| disrupting interaction strength | S431A;T432E |
| disrupting interaction strength | S431D;T432A |
| disrupting interaction strength | S431A |
